The data set in a line: soluble on expression in E. coli; label from the status in PepcDB or PDB records.
“MNERDIICAGCGVKIQTESKEMLGYTPPSALKRDVIICQRCFRMQHYNEVQDVSLTDDDFLKILHTIGERKALIVKLVDIFDFNGSWLPGLHRFVGGNDVLLIGNKVDLLPKSVNRNRMINWMRKSAKDLGLKPIDVALISGEKGIGVKEVASLIDRLRKGKDVYVVGATNVGKSTFINKMIQIFGGDEEQMITTSHFPGTTLDMIDIPLDDGKTLYDTPGIINHHQMAHYVAKNELKLITPKKEIKPKVFQLNEEQTLFFGGLARFDFVKGERTSFVCYVSNDLFIHRTKLEKADELYEKRLGDVLTPPEDPQHLPSLVKHEFTIRVQKVDVVISGLGWVTVNGTNVKVCAYAPEGVGVSIRESLILEHHHHHH”: the “soluble on expression in E. coli” value is recorded as “soluble”. To “MGHHHHHHSHLGHSTMYMWAMGDREVFIELAEALTGARLTHSYPIPGGARRDIPADFPDMARRAVRYMRKRLDEYAKIFLNNPVIRSRLEGVGVIPKKAAAEMGIVGPNARGSGIDYDVRLVHPYDAYPEIDFEVPVFEEGDALARTYVRVEEIKQSLRIIEQAVEWLEKHPREPIVDKYLYGKYPPLHKKVLEAEGRAKLLPTVAAMKVPPGRAIGRAETGRGETVYYVESDGGVNPYRVRIVTASARNVIAFKYVLPGHRVMDIPAIYGSLDYFPPEADR” belongs “not soluble”.

Turning to “MERISLSFVGDVMLAGSATDTLQRYGYSYPFSATAAELRRSDLVVGNLEAPLTDGGREFRAKRFRFKASPVAAAALKRAGFSVMTLANNHMMDFGADGLSDTIHHLNRNGIAFAGAGPSIADARREASVTVRGQTVAFLAYSLTQPIEFFATEGRPGTAPGYAGHYLADIRRVRSSADHVVVSFHWGQERAALPSPYQIETAHRAIDAGADIVIGHHPHVLQGIEIYRGSPIFYSLGNFAFGSRSPSADRSIIARVTLGEGPPIVEVIPLNVLFREVRFQPAILTGRKAADVVDRLNRLSAPFSTVITSTAGSHLVAPAEANARLARRQLEHHHHHH”, the “soluble on expression in E. coli” value is given as “not soluble”.

Consider “MSAFKKSLLVAGVAMILSNNVFADEGHGIVKFKGEVISAPCSIKPGDEDLTVNLGEVADTVLKSDQKSLAEPFTIHLQDCMLSQGGTTYSKAKVTFTTANTMTGQSDLLKNTKETEIGGATGVGVRILDSQSGEVTLGTPVVITFNNTNSYQELNFKARMESPSKDATPGNVYAQADYKIAYE”, for which the “soluble on expression in E. coli” value is reported as “soluble”. The same measure for “MSLDTTGITPTSIRIGSTSPQSGPVSAYGVQARCQAAYFKMINDRGGIAGRKIDFIYYDDAFNPAKTVEQTRKLVESDEVALLFSNLGTATNSAIVKYANAKKIPHLFLSVNGDKWSDYKAHPWSIGFAPSARTEAAIFVKHMLAEKPDAKFAVLYQNDDFGKDFVLGAKDVLGERESRQLVTISHETSDPTIDSQILQLRAAAPDALISGTTAKFTAQAIRKVAETRWQVRHYITGGSSSYAGTIGPAGPENAVGVISSAYLKDVADPAWKDDQGIKDFLAFMQSYFPEGNKDDFYNLYAYTVASALVKVLTQCGDGWTRENIMAQATNLKDVELPTLLPGIRVNTSPTDYRPLTQVQLQKWDGKAWVRFGDVLGAEGHHHHHH”: “soluble”; for “MKLSLVFLLFVAFAKSADTAPVDFNKIFVTFVEELMDAINQLILEQMGAIRPSTTPLQSIPPITATDAPTTADTTAEPTKAHETTVAQEATSEGAETHETTVGQDTTVRSGESQETTVSQGTTVSQENTVSQETTVSQDTTVSQETTVSQDTTVSQDTTVSQESTVSQETTVSQDTTVSQETSVSHETNVSPDTTVSQESTVSQDTTVSQETTLSQETTVSQETTVSQDTTVSQETTASQDTTVSQDTTVSQDTTVVPQETTVEATKASEATEENGTTAVTPGESDPCDTTEAPTGGSTVGESEPCDTTEASEPTGHTDQAETVTDPASQATASATIIGGVDQTGSTNLEATTEQICKHPTKDSEEEKTDENKDEKTTRAGTNVHRPEREDILK”: “not soluble”. Consider “MGSDKIHHHHHHMTEDNNLGLEFKYLIVNDMDRKFGLWVNTVGYQSIPPDSPYPLKEHPSGYYFNAEKGRVLREYQLVYITKGRGLFSSDSTPERQVCKGRLMVLFPGQWHTYYPLRQTGWTEYYIGFEGPAIDTIVGDAFLSQERQILEVGINEELVSLFSRALEVAEADKISAQQYLSGIVLHMIGMILSISKNKVFEMSDVDQKIEQAKILMNENVSGNIDPEELAMRLNISYSWFRRVFKEYTGYAPAKYFQELKLRKAKQMLVGTSQSVKEISFFLGFQSTEYFFSFFKKRTGLTPLEYRSFGREE”, for which the “soluble on expression in E. coli” value is “not soluble”. Take “MGSDKIHHHHHHMKVSADIGALVERRKQGYSLEAPFYQSEEIFALDMEAIFRKHWIQVAVEPDVPEPGDYITVELGHDSILVVRDDDMQVRAFHNVCRHRGARLCNEDKGTVGNIVCPYHSWTYNLTGDLMFAEHMGEKFDRCKHSLKSVHVQNLAGLIFVCLADEPPADFAAMRAAMEPYLLPHDLPNTKIAAQVDIIEEGNWKLTMENNRECYHCVANHPELTISLYEYGFGYQQSPANAEGMEAFEKTCIARAAQWEALNLPSAEIERLLERTGFRTQRLPLDRSGESQTLDAKVASKKLLGKFEQADLGGLSFWTQPNSWHHFMSDHIVTFSVIPLSAGKTLVRTKWLVHKDAQEGVDYDVANLTAVWNATNDQDRVLVEYSQRGSASSAYEPGPYSPFTEGLVEKFSAWYIRRLAEHVGA”: the “soluble on expression in E. coli” value is listed as “not soluble”. “MGSDKIHHHHHHMRLITFDASYDPIAEESKTVRVYVFEPEKIERNLIFLHGIGNGNIPYLLWFGEKFREYNIKTWFLILPYHEKRAPENWSGGEPFYHSSPSFCVKRFDEAVQDVIDLVDVVKRDNDKPISLMGFSFGGMITTIALAREKRIEKGVICCSGGDWRWINWYSPYTERLRELYRKNGNEYGCRSEKDCIKNRRNAPEIIKSFNSIEDIRKKPPVGCYFYDPASFAPFVDQKVLFFWALFDHVIPYQSYACLHKLLKNKKTVYLPSGHKGSYFFRRYIAKRVVRFLIDDE”: the “soluble on expression in E. coli” value was “not soluble”. “MNDFNTAFANIDEKAIPNDEKGAANGVATLNSSGKLAQMPSASDVGALPITGGEMQGALKLKANQYGGSGPADEKYALDCQNSNIVNVNRILTADPAGSASEGWGFQREDDPDAYDVIWASNGTLYFTPGFKYNTPPYPANQRVLATTDNIALTNYLRQEYNKLKESEGTPTLNDIINGFGFCYNDSSNGAGLDGTYLTVSGMLDNKYRLQLLGQYNGSNWLAYRTRNGDEQSWNPWHKVLTDNINAAISARHQYTSSSYPQIYGNGILQLGGDSRNEYGVVLRSNGTDEANAFRPSVNAGTTGHLYLGVANQKWRAVFAQNGTIQTSDRNAKHDITDLDPEKITAFIMGLKPSSYVFNDADSGRTHWGLISQDIEELFPQLGMTSMDFAGFIKSPKTEDYYEDVPETVTDEETGEEKTVTRKELKTRTVEGEYIYSLRYDEFLEHHHHHH”: the “soluble on expression in E. coli” value is recorded as “soluble”. Take “MGSDKIHHHHHHMDGHRLIQPLHARTADVGGIPVNRVMPQRGRRLIGAWCFLDHAGPATFTVGAGGMRVGSHPHIGLQTFTWMLAGEIMHHDSLGNAQRIRPGELNLMTAGRGIAHTEESILESGQLHAAQLWITLPHATRHTSPRFDHYPDLPRWSEQGTDVTLLRGDFQGREAPTHAFSPLVGLDIVSPDATQLTLPARTDFEYGVLLLEGSLTIERDRFDTNEMAYLGSGLDEITLAMEAGTRALMLGGEPLNEDILIWWNFVGHSKAEIAEAQKEWEEWEAGSDRFGDVPEFDGERIMPPPIPWKVTAN”: the “soluble on expression in E. coli” value was “not soluble”. For “MSAKKERVDVLLVERGLIETREKAKRAIMAGLVYANEMRLDKPGEKIPQDTEITVKGQVMPYVSRGGYKLEKALETFHLDLQDKVMIDIGSSTGGFTDCALQNGAKLSYALDVGYNQLAWKLRQDERVVVMERTNFRYVTPADLERGLPQFASIDVSFISLKLILPVLKTMLMPNGDVAALIKPQFEAGREQVGKKGIVRDRKVHEAVVEMIVDFAIKEGYDVEGLTFSPITGGDGNIEFLIHLKWHGERENGENHSPVSVEQVVTEAHDVLKQKGKGE”, the “soluble on expression in E. coli” value is “not soluble”.

Consider “MITYYVRQLKTFSIMSLTLSNVILHKLVKNEQDELEVCLRNQTLENEEFTEALVSELHRVFNSKAGKGFGVFKTESEFGHWLSSVRKNETPFLEFSNNSAEKLKSELIKYPFAEEGILVIAEYQSLATEYLFVAVLPSNESMKVTEQLDISATDYLDIAKMDIAARIDLSTWETDSDSNRYLTFIKGRVGRKVSDFFLDFLQADVGMDTKVQNQVLMQAVEDFCADERLDQEEKQPYRKQVYDYCNGQLQAGEELTVKELASELPTSESGSNFYQFAEEQGYELEESFPVDRTALRKLTKFVGAGGGLSLNFDAMLLGERVFYDPETDTLTIKGTPPNLKDQLEHHHHHH”, for which the “soluble on expression in E. coli” value is “not soluble”.

Values taken from the DeepSol protein solubility set.
